Data from patent US20250346668A1 (GENOR BIOPHARMA, published 2025).
Numbering of substitutions follows the chain as printed. One block for each binder: values may come before it.

Biological target: T1, human CD3e/g antigen (ACRO, catalog number CDG-H52W5) (human, UniProt P07766 23-126; P09693 23-116)
T1 construct: Bought reagent used as the Biacore analyte; also called hCD3e/g
Assay: SPR (Biacore 8K), antibody captured via anti-human Fc
Procedure: The equilibrium dissociation constant of binding of CD3 antibodies to human CD3e/g antigen (purchased from ACRO, catalog number CDG-H52W5) was determined by kinetic binding method using Biacore 8K (GE) system. Through the capture method, the carboxylated dextran surface of CM5 chip was first activated with NHS (N-hydroxysuccinimide) and EDC (1-(3-dimethylaminopropyl)-3-ethylcarbodiimide hydrochloride), and then added with an anti-human IgG (Fc) antibody, the free amino group of which could form an amide bond with the activated carboxyl group, thereby being fixed on the chip surface. The anti-human IgG (Fc) antibody could bind to the Fc end of CD3 antibodies to capture the antibodies, and then a series of concentrations of antigen were added to obtain the binding and dissociation curves of antibody and antigen, and the corresponding kinetic constants were calculated by Biacore Evaluation software, as shown in the table below.

Kd: 15.7 nM | koff: 0.00452 s⁻¹ | kon: 288000 M⁻¹ s⁻¹
B1: hAb001-17 (antibody, V domains shown)
VH: QVQLVQSGAEVKKPGASVKVSCKASGYSFTNYYMHWVRQAPGQRLEWMGWTYPGNNNIKYNEKFKGRVTITRDTSASTAYMELSSLRSEDTAVYYCARDGYGYYFFDYWGQGTLVTVSS
VL: DIVMTQSPDSLAVSLGERATINCKSSQSLLNNRTRKNYLAWYQQKPGQPPKLLIYWASTRESGVPDRFSGSGSGTDFTLTISSLQAEDVAVYYCKQSYTLRTFGGGTKLEIK
notes: Humanized; constant regions not specified

Kd: 8.06 nM | koff: 0.00377 s⁻¹ | kon: 468000 M⁻¹ s⁻¹
B2: hAb007-21 (antibody, V domains shown)
VH: QVQLVQSGAEVKKPGASVKVSCKASGSTFTDNYIHWVRQAPGQRLEWIGWIYPGSVNIKYNEKFKDRVTITADTSASTAYMELSSLRSEDTAVYYCARDISRYYFDYWGQGTTVTVSS
VL: B1 VL with N32S, Y98F, T99I
notes: as for B1

Kd: 6.01 nM | koff: 0.00241 s⁻¹ | kon: 401000 M⁻¹ s⁻¹
B3: hAb007-18 (antibody, V domains shown)
VH: B2 VH with I48M, A72R
VL: B1 VL with N32S, S69T, Y98F, T99I
notes: as for B1

Kd: 6.59 nM | koff: 0.0029 s⁻¹ | kon: 439000 M⁻¹ s⁻¹
B4: hAb007-23 (antibody, V domains shown)
VH: B2 VH
VL: B1 VL with I21M, N32S, Y98F, T99I
notes: as for B1

Kd: 22.6 nM | koff: 0.00896 s⁻¹ | kon: 397000 M⁻¹ s⁻¹
B5: hAb001-25 (antibody, V domains shown)
VH: B1 VH with M48I, V68A, R72A
VL: B1 VL
notes: as for B1

Kd: 12 nM | koff: 0.00565 s⁻¹ | kon: 470000 M⁻¹ s⁻¹
B6: hAb007-26 (antibody, V domains shown)
VH: B2 VH with V68A
VL: B1 VL with N32S, S69T, Y98F, T99I
notes: as for B1

Kd: 10.8 nM | koff: 0.00303 s⁻¹ | kon: 281000 M⁻¹ s⁻¹
B7: hAb001-20 (antibody, V domains shown)
VH: B1 VH
VL: B1 VL with I21M, N22S, S69T
notes: as for B1

Kd: 19.7 nM | koff: 0.00624 s⁻¹ | kon: 317000 M⁻¹ s⁻¹
B8: hAb001-31 (antibody, V domains shown)
VH: B1 VH with R38K, M48I, V68A, R72A
VL: B1 VL with I21M, N22S
notes: as for B1

Kd: 5.85 nM | koff: 0.00225 s⁻¹ | kon: 385000 M⁻¹ s⁻¹
B9: hAb007-17 (antibody, V domains shown)
VH: B2 VH with I48M, A72R
VL: B1 VL with N32S, Y98F, T99I
notes: as for B1

Kd: 9.32 nM | koff: 0.00317 s⁻¹ | kon: 340000 M⁻¹ s⁻¹
B10: hAb007-19 (antibody, V domains shown)
VH: B2 VH with I48M, A72R
VL: B1 VL with I21M, N32S, Y98F, T99I
notes: as for B1

Kd: 11.1 nM | koff: 0.00375 s⁻¹ | kon: 337000 M⁻¹ s⁻¹
B11: hAb007-20 (antibody, V domains shown)
VH: B2 VH with I48M, A72R
VL: B1 VL with I21M, N32S, S69T, Y98F, T99I
notes: as for B1

Kd: 6.16 nM | koff: 0.00258 s⁻¹ | kon: 419000 M⁻¹ s⁻¹
B12: hAb007-24 (antibody, V domains shown)
VH: B2 VH
VL: B1 VL with I21M, N32S, S69T, Y98F, T99I
notes: as for B1

Kd: 13.3 nM | koff: 0.00594 s⁻¹ | kon: 446000 M⁻¹ s⁻¹
B13: hAb007-22 (antibody, V domains shown)
VH: B2 VH
VL: B1 VL with N32S, S69T, Y98F, T99I
notes: as for B1

Kd: 94.5 nM | koff: 0.0354 s⁻¹ | kon: 375000 M⁻¹ s⁻¹
B14: hAb001-19 (antibody, V domains shown)
VH: B1 VH
VL: B1 VL with I21M, N22S
notes: as for B1

Kd: 35.2 nM | koff: 0.0121 s⁻¹ | kon: 343000 M⁻¹ s⁻¹
B15: hAb001-18 (antibody, V domains shown)
VH: B1 VH
VL: B1 VL with S69T
notes: as for B1

Kd: 9.24 nM | koff: 0.0043 s⁻¹ | kon: 465000 M⁻¹ s⁻¹
B16: hAb007-25 (antibody, V domains shown)
VH: B2 VH with V68A
VL: B1 VL with N32S, Y98F, T99I
notes: as for B1

Kd: 16.6 nM | koff: 0.00655 s⁻¹ | kon: 394000 M⁻¹ s⁻¹
B17: hAb001-24 (antibody, V domains shown)
VH: B1 VH with M48I, R72A
VL: B1 VL with I21M, N22S, S69T
notes: as for B1

Kd: 16.8 nM | koff: 0.00497 s⁻¹ | kon: 296000 M⁻¹ s⁻¹
B18: hAb001-32 (antibody, V domains shown)
VH: B1 VH with R38K, M48I, V68A, R72A
VL: B1 VL with I21M, N22S, S69T
notes: as for B1

Kd: 25.8 nM | koff: 0.00835 s⁻¹ | kon: 324000 M⁻¹ s⁻¹
B19: hAb001-30 (antibody, V domains shown)
VH: B1 VH with R38K, M48I, V68A, R72A
VL: B1 VL with S69T
notes: as for B1

Kd: 22.8 nM | koff: 0.00722 s⁻¹ | kon: 316000 M⁻¹ s⁻¹
B20: hAb001-29 (antibody, V domains shown)
VH: B1 VH with R38K, M48I, V68A, R72A
VL: B1 VL
notes: as for B1

Kd: 18.6 nM | koff: 0.00382 s⁻¹ | kon: 205000 M⁻¹ s⁻¹
B21: hAb008-21 (antibody, V domains shown)
VH: QVQLVQSGAEVKKPGASVKVSCKASGYTFTDYTVNWVRQAPGQRLEWIGYINPFNSYTKYNQKFKDRVTITADTSASTAYMELSSLRSEDTAVYYCANSVSTYWGQGTTVTVSS
VL: DVVMTQSPLSLPVTLGQPASISCKSSQSLLDSDGKTYLNWFQQRPGQSPRRLIQLVSKLNSGVPDRFSGSGSGTDFTLKISRVEAEDVGVFYCWQGTHFPRTFGGGTKLEIK
notes: as for B1

Kd: 27.2 nM | koff: 0.00441 s⁻¹ | kon: 162000 M⁻¹ s⁻¹
B22: hAb008-28 (antibody, V domains shown)
VH: B21 VH with R38K, V68A, Y95F
VL: B21 VL with Q54Y, F91Y
notes: as for B1

Kd: 26.1 nM | koff: 0.00573 s⁻¹ | kon: 219000 M⁻¹ s⁻¹
B23: hAb008-19 (antibody, V domains shown)
VH: B21 VH with I48M, A72R, N98R
VL: B21 VL with F41L, Q42L
notes: as for B1

Kd: 21.5 nM | koff: 0.00269 s⁻¹ | kon: 125000 M⁻¹ s⁻¹
B24: hAb008-24 (antibody, V domains shown)
VH: B21 VH with V68A, Y95F
VL: B21 VL with Q54Y, F91Y
notes: as for B1

Kd: 33.9 nM | koff: 0.00691 s⁻¹ | kon: 204000 M⁻¹ s⁻¹
B25: hAb008-18 (antibody, V domains shown)
VH: B21 VH with I48M, A72R, N98R
VL: B21 VL with F41L
notes: as for B1

Kd: 36.8 nM | koff: 0.00741 s⁻¹ | kon: 202000 M⁻¹ s⁻¹
B26: hAb008-25 (antibody, V domains shown)
VH: B21 VH with V68A, Y95F
VL: B21 VL
notes: as for B1

Kd: 18 nM | koff: 0.00475 s⁻¹ | kon: 264000 M⁻¹ s⁻¹
B27: hAb008-27 (antibody, V domains shown)
VH: B21 VH with V68A, Y95F
VL: B21 VL with F41L, Q42L
notes: as for B1

Kd: 20.8 nM | koff: 0.00378 s⁻¹ | kon: 182000 M⁻¹ s⁻¹
B28: hAb008-29 (antibody, V domains shown)
VH: B21 VH with R38K, V68A, Y95F
VL: B21 VL
notes: as for B1

Kd: 14.5 nM | koff: 0.00152 s⁻¹ | kon: 105000 M⁻¹ s⁻¹
B29: hAb008-20 (antibody, V domains shown)
VH: B21 VH
VL: B21 VL with Q54Y, F91Y
notes: as for B1

Kd: 18.6 nM | koff: 0.00189 s⁻¹ | kon: 101000 M⁻¹ s⁻¹
B30: hAb008-16 (antibody, V domains shown)
VH: B21 VH with I48M, A72R, N98R
VL: B21 VL with Q54Y, F91Y
notes: as for B1

Kd: 17.4 nM | koff: 0.00487 s⁻¹ | kon: 280000 M⁻¹ s⁻¹
B31: hAb008-23 (antibody, V domains shown)
VH: B21 VH
VL: B21 VL with F41L, Q42L
notes: as for B1

Kd: 20.4 nM | koff: 0.00522 s⁻¹ | kon: 256000 M⁻¹ s⁻¹
B32: hAb008-30 (antibody, V domains shown)
VH: B21 VH with R38K, V68A, Y95F
VL: B21 VL with F41L
notes: as for B1

Kd: 15.1 nM | koff: 0.00381 s⁻¹ | kon: 252000 M⁻¹ s⁻¹
B33: hAb008-31 (antibody, V domains shown)
VH: B21 VH with R38K, V68A, Y95F
VL: B21 VL with F41L, Q42L
notes: as for B1

Kd: 7.57 nM | koff: 0.00126 s⁻¹ | kon: 167000 M⁻¹ s⁻¹
B34: hAb008-17 (antibody, V domains shown)
VH: B21 VH with I48M, A72R, N98R
VL: B21 VL
notes: as for B1

Kd: 20.6 nM | koff: 0.00588 s⁻¹ | kon: 285000 M⁻¹ s⁻¹
B35: hAb008-22 (antibody, V domains shown)
VH: B21 VH
VL: B21 VL with F41L
notes: as for B1
